For five molecules, Kd results are on record in paper PMC10694664 (The Journal of Biological Chemistry, 2023).

To fix the notation:
B2: Fis1ΔN (human Fis1 residues 9-125, lacking the N-terminal arm) (domain or fragment)
chain: VSVEDLLKFEKKFQSEKAAGSVSKSTQFEYAWCLVRSKYNDDIRKGIVLLEELLPKGSKEEQRDYVFYLAVGNYRLKEYEKALKYVRGLLQTEPQNNQAKELERLIDKAMKKDGLVG

Some results are limits rather than exact numbers.

In test [1] the target is T1, Dynamin-related protein 1 (Drp1) isoform 1, unlabelled (human, UniProt O00429 1-736). As to the kind of experiment: MST.
Test [2] deals with T1, Dynamin-related protein 1 (Drp1) …. The experiment in a line: NMR titration.
The target of test [3] is Cy5-labelled Drp1 (isoform 1) (human, UniProt O00429 1-736). The experiment in a line: MST.
The target of test [4] is B2. The experiment in a line: NMR titration.

T1 sequence (O00429 whole entry, canonical isoform): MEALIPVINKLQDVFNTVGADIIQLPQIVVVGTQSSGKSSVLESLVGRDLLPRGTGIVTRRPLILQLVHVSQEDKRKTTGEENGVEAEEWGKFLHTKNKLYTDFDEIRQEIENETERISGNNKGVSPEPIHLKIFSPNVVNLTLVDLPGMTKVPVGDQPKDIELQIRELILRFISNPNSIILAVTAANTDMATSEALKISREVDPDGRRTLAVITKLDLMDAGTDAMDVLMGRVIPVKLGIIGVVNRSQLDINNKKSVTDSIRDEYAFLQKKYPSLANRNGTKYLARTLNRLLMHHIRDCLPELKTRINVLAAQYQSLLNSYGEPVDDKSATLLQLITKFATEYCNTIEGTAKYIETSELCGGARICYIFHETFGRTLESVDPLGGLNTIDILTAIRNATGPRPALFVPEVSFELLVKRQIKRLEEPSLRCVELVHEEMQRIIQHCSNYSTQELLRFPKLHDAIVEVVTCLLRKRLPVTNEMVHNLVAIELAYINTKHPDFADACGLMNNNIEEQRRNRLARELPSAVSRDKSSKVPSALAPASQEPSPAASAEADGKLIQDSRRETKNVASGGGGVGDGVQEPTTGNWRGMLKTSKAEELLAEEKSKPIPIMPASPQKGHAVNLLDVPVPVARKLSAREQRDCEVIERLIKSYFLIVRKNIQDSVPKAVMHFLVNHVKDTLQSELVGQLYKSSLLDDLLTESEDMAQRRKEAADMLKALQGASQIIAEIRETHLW
Chain of Cy5-labelled Drp1 (isoform 1) (O00429 whole entry, canonical isoform): as above

B1: Cy5-labelled Fis1ΔN (residues 9-125) (domain or fragment)
chain: VSVEDLLKFEKKFQSEKAAGSVSKSTQFEYAWCLVRSKYNDDIRKGIVLLEELLPKGSKEEQRDYVFYLAVGNYRLKEYEKALKYVRGLLQTEPQNNQAKELERLIDKAMKKDGLVG
For orientation: Kd means the constant that tells how readily two partners part at equilibrium. Low values mean tighter binding, high ones weaker binding. The molecule B1 registered a Kd in test [1] of 15 µM.

In turn, B2 displayed a Kd in test [2] of 26 to 68 µM.

B3: Fis1 (human Fis1 residues 1-125, with the N-terminal arm) (domain or fragment)
chain: MEAVLNELVSVEDLLKFEKKFQSEKAAGSVSKSTQFEYAWCLVRSKYNDDIRKGIVLLEELLPKGSKEEQRDYVFYLAVGNYRLKEYEKALKYVRGLLQTEPQNNQAKELERLIDKAMKKDGLVG
In the case of B3, in test [3], the affinity, expressed as Kd, was 13 ± 3 µM.

B4: Fis1 E7A (human Fis1 residues 1-125 with E7A) (domain or fragment)
chain: MEAVLNALVSVEDLLKFEKKFQSEKAAGSVSKSTQFEYAWCLVRSKYNDDIRKGIVLLEELLPKGSKEEQRDYVFYLAVGNYRLKEYEKALKYVRGLLQTEPQNNQAKELERLIDKAMKKDGLVG
In test [3], B4 gave a Kd of 7 ± 1 µM.

In test [4], Ac-MEAVLNEL-NH2 [Fis1 N-terminal arm peptide] had a Kd of at least 5000 µM.
